Patent publication US20040219558, “Novel compositions with polymerase activity” (MJ Bioworks Incorporated, published 2004)

Target: T1, Pfu DNA polymerase (Pyrococcus furiosus, UniProt P61875 SEQ:1-775)
T1 sequence: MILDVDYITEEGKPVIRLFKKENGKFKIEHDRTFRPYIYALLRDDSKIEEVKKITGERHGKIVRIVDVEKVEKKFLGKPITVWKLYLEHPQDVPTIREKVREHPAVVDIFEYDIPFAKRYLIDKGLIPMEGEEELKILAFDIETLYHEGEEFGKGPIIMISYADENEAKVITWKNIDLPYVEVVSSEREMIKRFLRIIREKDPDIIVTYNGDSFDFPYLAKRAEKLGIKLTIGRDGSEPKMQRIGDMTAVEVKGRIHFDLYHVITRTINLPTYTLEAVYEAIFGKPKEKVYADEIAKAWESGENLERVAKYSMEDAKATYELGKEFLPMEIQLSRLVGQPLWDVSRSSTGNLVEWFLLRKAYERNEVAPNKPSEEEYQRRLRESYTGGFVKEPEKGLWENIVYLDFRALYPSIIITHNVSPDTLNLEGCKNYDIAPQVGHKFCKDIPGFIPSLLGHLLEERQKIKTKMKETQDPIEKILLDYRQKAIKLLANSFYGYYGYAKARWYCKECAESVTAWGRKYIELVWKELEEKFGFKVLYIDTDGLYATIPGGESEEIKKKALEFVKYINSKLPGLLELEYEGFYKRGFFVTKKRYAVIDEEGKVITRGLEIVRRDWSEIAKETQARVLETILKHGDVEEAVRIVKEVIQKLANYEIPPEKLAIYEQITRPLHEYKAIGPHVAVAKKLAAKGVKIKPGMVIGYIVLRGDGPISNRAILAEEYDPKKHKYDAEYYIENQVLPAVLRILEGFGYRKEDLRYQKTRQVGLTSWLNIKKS
Assay: 3'-5' exonuclease fluorescence assay, 65 C; high exonuclease activity
Conditions: tags: Stratagene (commercial); label: 5'-FAM, 3'-dabcyl; hairpin, 16 bp stem with 3' T:T* mismatch and 5' unpaired poly-T
Experimental: The oligonucleotide was combined with buffer and the enzyme and incubated in a real time detection instrument, the DNA Engine Opticon System (MJ Research, Inc.). This instrument excites the FAM and detects any fluorescence if present. In the absence of 3′ to 5′ exonuclease activity, there is only background fluorescence because FAM is quenched by DAB. However if the enzyme does have 3′ to 5′ exonuclease activity, the T:T* mismatch is recognized and the 3′-T* is removed. The DAB is released and will no longer quench the FAM fluorescence. The Opticon System will detect the increase in fluorescence with increasing time (readings were taken every 10 sec at 65° C.). The rate of fluorescence increase directly reflects the amount of 3′ to 5′ exonuclease activity. […] The results (FIG. 3) of this analysis are discussed below.

TTTTTTGAGGTGTGTCCTACACAGCGGAGTGTAGGACACACCTCT (structured_DNA, 3' terminal T is amino-link dT carrying dabcyl) [FAM/dabcyl hairpin exonuclease substrate]: binds.
